Results as given in PMC10602139, “Architecture and rearrangements of a sperm-specific Na^+/H^+ exchanger” (Research Square, 2023).

Experiments:
[1] = biological target: the molecule itself; experiment: SEC; FSEC of eGFP fusion constructs affinity purified in digitonin micelles; Superose 6 10/300, GFP fluorescence detected
[2] = biological target: the molecule itself; experiment: SEC; FSEC, thermal disassembly: protein diluted 200-fold into destabilizing buffer pH 6 without or with cAMP (up to 5 mM), heated 10 min to the desired temperature; ratio of monomer to dimer species (ρ) against temperature; dimer to monomers

| Protein | stoichiometry N [1] | binding result [2] | further results |
| --- | --- | --- | --- |
| sp9C1 truncated at amino acid position 657, eGFP fusion (domain or fragment, Strongylocentrotus purpuratus, UniProt A3RL54 30-657, looked up, the ARD is partly deleted; source: HEK293F, transiently transfected; not shown: mEGFP, C-terminal, kept; Twinstrep, C-terminal, kept) SSGGSGHTPTTQATHADDHDLTTHNGTEEHDDGHDDGHDDLHAHAPKVIVFISGSCLFGAISRSLFKKLPIPYTVVLLILGAILGVVASNVPLVEEHTRDVAHMDPHVLLQIFLPVLIFESAFAMDVHTFMRSFSQVCILALFGLVVASVLTAVLAMNLFNYNWNFSEAMMFGAIMSATDPVAVVALLKDLGASKQLGTIIEGESLLNDGCAIVIFNVFMKMVFFPQLTSTVGQNVLYFLQVAVAGPLWGYAVAKVTVFFLSHIFNDALVEITITLAATYLTYYIGDIWLEVSGVLAVVVLGLIVNAEKTSISPEVEVFLHRFWEMLAYLANTLIFMMVGVVVTQKALVAVDKMDWFYLIILYLAITIIRGMVISLFSPILSRIGYGLTWRNAVIMTWGGLRGAVGLALALVVENLAGNDVIGSKFLFHTAGIVVLTLVINATTIQTLLRILGMSDISIPKRLAMAGAVRRIHEGQNRTLNMLKSDRFLADADWDIATAACEISDPYSALSDDENAPADELTLGERKSVCPGCKAMVPNEPSPREFADMMEEARLRMLKAEKISYWKQFEHGMLAREALRLLVQHAEVAADEKDQFILVDDLKKSWQIKGIYPWLKRKLEDLISEKKI | 2 |  |  |
| sp9C1-eGFP, full length (FSEC sample) (natural protein, Strongylocentrotus purpuratus, UniProt A3RL54 30-1325, looked up, SLC9C1 (sperm-specific Na+/H+ exchanger), Strongylocentrotus purpuratus, full length; followed by a PreScission site and mEGFP-Twinstrep; A PreScission protease site lies between SLC9C1 and the mEGFP-Twinstrep tag; also called FL; FL-sp9C1; source: HEK293F, transiently transfected; not shown: mEGFP, C-terminal, kept; Twinstrep, C-terminal, kept) SSGGSGHTPTTQATHADDHDLTTHNGTEEHDDGHDDGHDDLHAHAPKVIVFISGSCLFGAISRSLFKKLPIPYTVVLLILGAILGVVASNVPLVEEHTRDVAHMDPHVLLQIFLPVLIFESAFAMDVHTFMRSFSQVCILALFGLVVASVLTAVLAMNLFNYNWNFSEAMMFGAIMSATDPVAVVALLKDLGASKQLGTIIEGESLLNDGCAIVIFNVFMKMVFFPQLTSTVGQNVLYFLQVAVAGPLWGYAVAKVTVFFLSHIFNDALVEITITLAATYLTYYIGDIWLEVSGVLAVVVLGLIVNAEKTSISPEVEVFLHRFWEMLAYLANTLIFMMVGVVVTQKALVAVDKMDWFYLIILYLAITIIRGMVISLFSPILSRIGYGLTWRNAVIMTWGGLRGAVGLALALVVENLAGNDVIGSKFLFHTAGIVVLTLVINATTIQTLLRILGMSDISIPKRLAMAGAVRRIHEGQNRTLNMLKSDRFLADADWDIATAACEISDPYSALSDDENAPADELTLGERKSVCPGCKAMVPNEPSPREFADMMEEARLRMLKAEKISYWKQFEHGMLAREALRLLVQHAEVAADEKDQFILVDDLKKSWQIKGIYPWLKRKLEDLISEKKIAAIPMPKYKLGKLMYKICHHMAFEVTINIAIVLNIVPIIMEFVVQDKMASVSTMAAPGSTVSSEPSSLQKIEDALRISNYVFFVIYAIEAIVKILGLGRHYIVSHWNKFDAFILVVALVDIIIAETLLKGSITINLSSIKVVKLFRLLRGLRMLRLTKALIPKLILVVNGKINNQLSLGYDVGKGYIIGEEEVGKIIDRMVDNKKILRELKHISETGRLQVVKELGLLQREHPGIAVSVKTRQAIRTILNHSRETIHELQGAGLLDEMEAHKLELTVEIKMKRLMNAPSSIPPPPPENLLKNVSWLAGDMKLIDFIKARASLLHFDYGEVIVREGDESDGLFLIVSGLVKLYGKSAFLDHDNPPVTAGSEENEVFEDYLTVGNVIGEMGVLTKKPRNATVTCETTVQVYFITAEDMNIAIDTFTLYPSLEYRLWRVVAIRIATPLIMEQMAFQGWTQEKVKLHLERGYLVDLAESHFQFNIDATLEDVILINGTAYNAHTREEIRSPCLISRTVHKLTFQYTATEEPRLFVVRNAEYNGPILDGRLDVDSKRSLISITEISSNMCLKHAAELRQKNSKVMLSRKSSGAAAKEEEDCIPNTSDVEQAAGVSPSVPTKTTPKPKSFLPSLGLSMSKERVNGEAVEESPVKTKQGEETPETEEGAAPRVNV | 2 |  | ρsat (saturating ratio of monomer to dimer species), 5 mM cAMP [2]: 2.4; ρsat (saturating ratio of monomer to dimer species), cAMP-free [2]: ~0.9 |
| sp9C1 K880A mutant, eGFP fusion (natural protein, Strongylocentrotus purpuratus, UniProt A3RL54 30-1325, looked up, SLC9C1, Strongylocentrotus purpuratus, with K880A; also called R880A (as printed once); source: HEK293F, transiently transfected; not shown: mEGFP, C-terminal, kept; Twinstrep, C-terminal, kept) SSGGSGHTPTTQATHADDHDLTTHNGTEEHDDGHDDGHDDLHAHAPKVIVFISGSCLFGAISRSLFKKLPIPYTVVLLILGAILGVVASNVPLVEEHTRDVAHMDPHVLLQIFLPVLIFESAFAMDVHTFMRSFSQVCILALFGLVVASVLTAVLAMNLFNYNWNFSEAMMFGAIMSATDPVAVVALLKDLGASKQLGTIIEGESLLNDGCAIVIFNVFMKMVFFPQLTSTVGQNVLYFLQVAVAGPLWGYAVAKVTVFFLSHIFNDALVEITITLAATYLTYYIGDIWLEVSGVLAVVVLGLIVNAEKTSISPEVEVFLHRFWEMLAYLANTLIFMMVGVVVTQKALVAVDKMDWFYLIILYLAITIIRGMVISLFSPILSRIGYGLTWRNAVIMTWGGLRGAVGLALALVVENLAGNDVIGSKFLFHTAGIVVLTLVINATTIQTLLRILGMSDISIPKRLAMAGAVRRIHEGQNRTLNMLKSDRFLADADWDIATAACEISDPYSALSDDENAPADELTLGERKSVCPGCKAMVPNEPSPREFADMMEEARLRMLKAEKISYWKQFEHGMLAREALRLLVQHAEVAADEKDQFILVDDLKKSWQIKGIYPWLKRKLEDLISEKKIAAIPMPKYKLGKLMYKICHHMAFEVTINIAIVLNIVPIIMEFVVQDKMASVSTMAAPGSTVSSEPSSLQKIEDALRISNYVFFVIYAIEAIVKILGLGRHYIVSHWNKFDAFILVVALVDIIIAETLLKGSITINLSSIKVVKLFRLLRGLRMLRLTKALIPKLILVVNGKINNQLSLGYDVGKGYIIGEEEVGKIIDRMVDNKKILRELKHISETGRLQVVAELGLLQREHPGIAVSVKTRQAIRTILNHSRETIHELQGAGLLDEMEAHKLELTVEIKMKRLMNAPSSIPPPPPENLLKNVSWLAGDMKLIDFIKARASLLHFDYGEVIVREGDESDGLFLIVSGLVKLYGKSAFLDHDNPPVTAGSEENEVFEDYLTVGNVIGEMGVLTKKPRNATVTCETTVQVYFITAEDMNIAIDTFTLYPSLEYRLWRVVAIRIATPLIMEQMAFQGWTQEKVKLHLERGYLVDLAESHFQFNIDATLEDVILINGTAYNAHTREEIRSPCLISRTVHKLTFQYTATEEPRLFVVRNAEYNGPILDGRLDVDSKRSLISITEISSNMCLKHAAELRQKNSKVMLSRKSSGAAAKEEEDCIPNTSDVEQAAGVSPSVPTKTTPKPKSFLPSLGLSMSKERVNGEAVEESPVKTKQGEETPETEEGAAPRVNV |  | binds |  |
| sp9C1 Y1035C mutant, eGFP fusion (natural protein, Strongylocentrotus purpuratus, UniProt A3RL54 30-1325, looked up, SLC9C1, Strongylocentrotus purpuratus, with Y1035C; source: HEK293F, transiently transfected; not shown: mEGFP, C-terminal, kept; Twinstrep, C-terminal, kept) SSGGSGHTPTTQATHADDHDLTTHNGTEEHDDGHDDGHDDLHAHAPKVIVFISGSCLFGAISRSLFKKLPIPYTVVLLILGAILGVVASNVPLVEEHTRDVAHMDPHVLLQIFLPVLIFESAFAMDVHTFMRSFSQVCILALFGLVVASVLTAVLAMNLFNYNWNFSEAMMFGAIMSATDPVAVVALLKDLGASKQLGTIIEGESLLNDGCAIVIFNVFMKMVFFPQLTSTVGQNVLYFLQVAVAGPLWGYAVAKVTVFFLSHIFNDALVEITITLAATYLTYYIGDIWLEVSGVLAVVVLGLIVNAEKTSISPEVEVFLHRFWEMLAYLANTLIFMMVGVVVTQKALVAVDKMDWFYLIILYLAITIIRGMVISLFSPILSRIGYGLTWRNAVIMTWGGLRGAVGLALALVVENLAGNDVIGSKFLFHTAGIVVLTLVINATTIQTLLRILGMSDISIPKRLAMAGAVRRIHEGQNRTLNMLKSDRFLADADWDIATAACEISDPYSALSDDENAPADELTLGERKSVCPGCKAMVPNEPSPREFADMMEEARLRMLKAEKISYWKQFEHGMLAREALRLLVQHAEVAADEKDQFILVDDLKKSWQIKGIYPWLKRKLEDLISEKKIAAIPMPKYKLGKLMYKICHHMAFEVTINIAIVLNIVPIIMEFVVQDKMASVSTMAAPGSTVSSEPSSLQKIEDALRISNYVFFVIYAIEAIVKILGLGRHYIVSHWNKFDAFILVVALVDIIIAETLLKGSITINLSSIKVVKLFRLLRGLRMLRLTKALIPKLILVVNGKINNQLSLGYDVGKGYIIGEEEVGKIIDRMVDNKKILRELKHISETGRLQVVKELGLLQREHPGIAVSVKTRQAIRTILNHSRETIHELQGAGLLDEMEAHKLELTVEIKMKRLMNAPSSIPPPPPENLLKNVSWLAGDMKLIDFIKARASLLHFDYGEVIVREGDESDGLFLIVSGLVKLYGKSAFLDHDNPPVTAGSEENEVFEDCLTVGNVIGEMGVLTKKPRNATVTCETTVQVYFITAEDMNIAIDTFTLYPSLEYRLWRVVAIRIATPLIMEQMAFQGWTQEKVKLHLERGYLVDLAESHFQFNIDATLEDVILINGTAYNAHTREEIRSPCLISRTVHKLTFQYTATEEPRLFVVRNAEYNGPILDGRLDVDSKRSLISITEISSNMCLKHAAELRQKNSKVMLSRKSSGAAAKEEEDCIPNTSDVEQAAGVSPSVPTKTTPKPKSFLPSLGLSMSKERVNGEAVEESPVKTKQGEETPETEEGAAPRVNV |  | binds |  |
| sp9C1 truncated at amino acid position 950, eGFP fusion (domain or fragment, Strongylocentrotus purpuratus, UniProt A3RL54 30-950, looked up, SLC9C1, Strongylocentrotus purpuratus, truncated at amino acid position 950; the CNBD, βR2 and the C-terminal tail are deleted; also called 950 construct; source: HEK293F, transiently transfected; not shown: mEGFP, C-terminal, kept; Twinstrep, C-terminal, kept) SSGGSGHTPTTQATHADDHDLTTHNGTEEHDDGHDDGHDDLHAHAPKVIVFISGSCLFGAISRSLFKKLPIPYTVVLLILGAILGVVASNVPLVEEHTRDVAHMDPHVLLQIFLPVLIFESAFAMDVHTFMRSFSQVCILALFGLVVASVLTAVLAMNLFNYNWNFSEAMMFGAIMSATDPVAVVALLKDLGASKQLGTIIEGESLLNDGCAIVIFNVFMKMVFFPQLTSTVGQNVLYFLQVAVAGPLWGYAVAKVTVFFLSHIFNDALVEITITLAATYLTYYIGDIWLEVSGVLAVVVLGLIVNAEKTSISPEVEVFLHRFWEMLAYLANTLIFMMVGVVVTQKALVAVDKMDWFYLIILYLAITIIRGMVISLFSPILSRIGYGLTWRNAVIMTWGGLRGAVGLALALVVENLAGNDVIGSKFLFHTAGIVVLTLVINATTIQTLLRILGMSDISIPKRLAMAGAVRRIHEGQNRTLNMLKSDRFLADADWDIATAACEISDPYSALSDDENAPADELTLGERKSVCPGCKAMVPNEPSPREFADMMEEARLRMLKAEKISYWKQFEHGMLAREALRLLVQHAEVAADEKDQFILVDDLKKSWQIKGIYPWLKRKLEDLISEKKIAAIPMPKYKLGKLMYKICHHMAFEVTINIAIVLNIVPIIMEFVVQDKMASVSTMAAPGSTVSSEPSSLQKIEDALRISNYVFFVIYAIEAIVKILGLGRHYIVSHWNKFDAFILVVALVDIIIAETLLKGSITINLSSIKVVKLFRLLRGLRMLRLTKALIPKLILVVNGKINNQLSLGYDVGKGYIIGEEEVGKIIDRMVDNKKILRELKHISETGRLQVVKELGLLQREHPGIAVSVKTRQAIRTILNHSRETIHELQGAGLLDEMEAHKLELTVEIKMKRLMNAPSSIPP | 2 |  |  |
| sp9C1 truncated at amino acid position 494, eGFP fusion (domain or fragment, Strongylocentrotus purpuratus, UniProt A3RL54 30-494, looked up, the ARD is deleted, the ion-exchange domain (ED) remains; source: HEK293F, transiently transfected; not shown: mEGFP, C-terminal, kept; Twinstrep, C-terminal, kept) SSGGSGHTPTTQATHADDHDLTTHNGTEEHDDGHDDGHDDLHAHAPKVIVFISGSCLFGAISRSLFKKLPIPYTVVLLILGAILGVVASNVPLVEEHTRDVAHMDPHVLLQIFLPVLIFESAFAMDVHTFMRSFSQVCILALFGLVVASVLTAVLAMNLFNYNWNFSEAMMFGAIMSATDPVAVVALLKDLGASKQLGTIIEGESLLNDGCAIVIFNVFMKMVFFPQLTSTVGQNVLYFLQVAVAGPLWGYAVAKVTVFFLSHIFNDALVEITITLAATYLTYYIGDIWLEVSGVLAVVVLGLIVNAEKTSISPEVEVFLHRFWEMLAYLANTLIFMMVGVVVTQKALVAVDKMDWFYLIILYLAITIIRGMVISLFSPILSRIGYGLTWRNAVIMTWGGLRGAVGLALALVVENLAGNDVIGSKFLFHTAGIVVLTLVINATTIQTLLRILGMSDISIPKRLAM | 2 |  |  |
